Substrate: C[S+](CC[C@H](N)C(=O)O)C[C@H]1O[C@@H](n2cnc3c(N)ncnc32)[C@H](O)[C@@H]1O
Assay: purified protein
Settings: co-substrate mGpppAmC RNA 1 μM; 100 nM enzyme; SAM 0.5-6 μM; labelled compound

B1: CMTR2 (Homo sapiens) (protein)
chain: MSKCRKTPVQQLASPASFSPDILADIFELFAKNFSYGKPLNNEWQLPDPSEIFTCDHTELNAFLDLKNSLNEVKNLLSDKKLDEWHEHTAFTNKAGKIISHVRKSVNAELCTQAWCKFHEILCSFPLIPQEAFQNGKLNSLHLCEAPGAFIASLNHYLKSHRFPCHWSWVANTLNPYHEANDDLMMIMDDRLIANTLHWWYFGPDNTGDIMTLKFLTGLQNFISSMATVHLVTADGSFDCQGNPGEQEALVSSLHYCEVVTALTTLGNGGSFVLKMFTMFEHCSINLMYLLNCCFDQVHVFKPATSKAGNSEVYVVCLHYKGREAIHPLLSKMTLNFGTEMKRKALFPHHVIPDSFLKRHEECCVFFHKYQLETISENIRLFECMGKAEQEKLNNLRDCAIQYFMQKFQLKHLSRNNWLVKKSSIGCSTNTKWFGQRNKYFKTYNERKMLEALSWKDKVAKGYFNSWAEEHGVYHPGQSSILEGTASNLECHLWHILEGKKLPKVKCSPFCNGEILKTLNEAIEKSLGGAFNLDSKFRPKQQYSCSCHVFSEELIFSELCSLTECLQDEQVVVPSNQIKCLLVGFSTLRNIKMHIPLEVRLLESAELTTFSCSLLHDGDPTYQRLFLDCLLHSLRELHTGDVMILPVLSCFTRFMAGLIFVLHSCFRFITFVCPTSSDPLRTCAVLLCVGYQDLPNPVFRYLQSVNELLSTLLNSDSPQQVLQFVPMEVLLKGALLDFLWDLNAAIAKRHLHFIIQREREEIINSLQLQN
B1 showed a K0.5 of 1.3 ± 0.1 µM and a kcat of 0.000944 ± 0.00011 s⁻¹.
